{
  "source": "patent US20220204621A1",
  "about": "(UCL BUSINESS, published 2022)",
  "binders": {"B1": {"name": "ROR1xCD3 BiTE (membrane proximal binding ROR1-BiTE specific for the Frizzled domain) (bispecific antibody, part only; not given: OKT3 scFv and linkers, part only)", "chain, part": "HHHHHHEVQLVESGGGLVQPGRSLKLSCAASGFIFSEHNMAWVRQAPKKGLEWVATISDDGRNTYYRDSMRGRFTISRENARSTLYLQLDSLRSEDTATYYCASHRYNLFDSWGQGVMVTVSSDIQMTQSPSFLSASVGDRVTINCKASQNIDRYLNWYQQKLGEAPKRLLYNTNKLQTGIPSRFSGSGSATDFTLTISSLQPEDFATYFCLQYNSLPLTFGSGTKLEIK"}, "B2": {"name": "Clone F antibody (antibody, V domains shown)", "VH": "EVQLVESGGGLVQPGRSLKLSCAASGFIFSEHNMAWVRQAPKKGLEWVATISDDGRNTYYRDSMRGRFTISRENARSTLYLQLDSLRSEDTATYYCASHRYNLFDSWGQGVMVTVSS", "VL": "DIQMTQSPSFLSASVGDRVTINCKASQNIDRYLNWYQQKLGEAPKRLLYNTNKLQTGIPSRFSGSGSATDFTLTISSLQPEDFATYFCLQYNSLPLTFGSGTKLEIK", "notes": "Rat anti-ROR1 antibody from a hybridoma library"}},
  "key": {"[1]": {"target": "human Receptor Tyrosine Kinase Like Orphan Receptor 1 (ROR1), full length (human) (UniProt Q01973)", "sequence (Q01973 30-937)": "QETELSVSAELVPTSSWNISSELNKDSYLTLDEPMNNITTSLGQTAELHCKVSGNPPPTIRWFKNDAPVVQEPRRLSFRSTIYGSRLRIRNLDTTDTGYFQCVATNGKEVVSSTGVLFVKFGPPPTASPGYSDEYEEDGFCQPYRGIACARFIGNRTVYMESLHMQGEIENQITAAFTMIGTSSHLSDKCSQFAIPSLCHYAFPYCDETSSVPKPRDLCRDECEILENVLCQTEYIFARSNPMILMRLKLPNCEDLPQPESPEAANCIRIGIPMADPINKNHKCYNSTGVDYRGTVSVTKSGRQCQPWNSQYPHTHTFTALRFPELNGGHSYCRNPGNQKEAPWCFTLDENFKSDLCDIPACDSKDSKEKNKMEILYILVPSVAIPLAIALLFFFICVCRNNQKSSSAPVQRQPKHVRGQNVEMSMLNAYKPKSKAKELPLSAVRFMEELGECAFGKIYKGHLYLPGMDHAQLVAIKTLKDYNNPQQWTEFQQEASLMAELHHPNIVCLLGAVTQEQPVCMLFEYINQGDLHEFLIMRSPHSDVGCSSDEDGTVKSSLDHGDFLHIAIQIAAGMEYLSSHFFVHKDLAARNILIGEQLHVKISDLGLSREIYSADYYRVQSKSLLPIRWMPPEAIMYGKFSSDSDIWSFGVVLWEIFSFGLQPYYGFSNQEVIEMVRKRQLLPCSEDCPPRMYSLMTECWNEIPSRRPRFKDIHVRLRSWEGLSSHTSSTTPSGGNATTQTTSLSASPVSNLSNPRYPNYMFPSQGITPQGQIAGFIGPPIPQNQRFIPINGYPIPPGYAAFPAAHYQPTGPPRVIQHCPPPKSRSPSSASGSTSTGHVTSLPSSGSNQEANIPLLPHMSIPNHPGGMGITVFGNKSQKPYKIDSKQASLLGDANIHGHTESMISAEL", "assay": "cell-based or functional assay"}, "[2]": {"target": "human ROR1 with the combination of Q(261)H and I(254)V (human, UniProt Q01973 30-937, limits assumed)", "sequence (Q01973 30-937 I254V/Q261H limits assumed)": "as the sequence (Q01973 30-937) above, with I225V, Q232H counted along it", "assay": "antibody binding to mutated human ROR1 constructs"}},
  "data": [
    {"binder": "B1", "values": [
      {"measurement": "cytotoxicity against neuroblastoma cell lines; lowest concentration named (micrograms/ml)", "setting": "[1]", "value": 0.01},
      {"measurement": "dose dependent cytotoxicity across ROR1 positive pancreatic cell lines (PANC-1, SUIT-2, CFPAC1, HPAF-II, MiaPaCa2, PSN-1); lowest concentration with significant activity", "setting": "[1]", "value": 0.1, "unit": "ng/mL"}
    ]},
    {"binder": "B2", "values": [
      {"measurement": "binding result", "setting": "[2]", "value": "no binding"}
    ]}
  ]
}
